Measured values: patent publication US20090068207A1, “Compositions Containing Beta 2-Glycoprotein I-Derived Peptides for the Prevention and/or Treatment of Vascular Disease” (Vascular Biogenics Ltd., priority 2005, published 2009)

What was measured:
[1] = system: inguinal lymph node cells; test: Lymph node cell proliferation (stimulation index) to sensitizing antigen β2GPI after mucosal administration; type: in vivo, mice; conditions: then immunization with human β2GPI, LDL-RD mice
Procedure: Immunization: Subcutaneous immunization with human β2GPI: Human β2GPI was prepared from human plasma pool as described above. For immunization, human β2GPI was dissolved in PBS and mixed with equal volumes of Freund's incomplete adjuvant. Immunizations were performed by single subcutaneous injection of 10 μg antigen/mouse in 0.1 ml volume. Three days following the last mucosal administration of plaque associated molecules the mice received one immunization, and were sacrificed 10 days post immunization.
Proliferation assays: Mice were exposed to the tested antigen as described for assessment of atherosclerosis, and then immunized (one to three days following the last exposure) subcutaneously with 10 μg β2GPI in 0.1 ml PBS, prepared from purified human β2GPI as described above.
Proliferation was assayed ten days after immunization with the β2GPI as follows: Draining inguinal lymph nodes were prepared by mashing the tissues on 100 mesh screens. Red blood cells were lysed with cold sterile double distilled water (6 ml) for 30 seconds and 2 ml of NaCl 3.5% was added. Incomplete medium was added (10 ml), cells were centrifuged for 7 min at 1,700 rpm, resuspended in RPMI medium and counted in a haemocytometer at 1:20 dilution (10 μl cells+190 μl Trypan Blue). Proliferation was measured by the incorporation of [^3H] Thymidine into DNA in triplicate samples of 100 μl of the packed cells (1×10^6 cells/ml) in a 96 well microtiter plate. […] Thymidine (0.5 μCi/well) was added. After an additional 12-24 hours of incubation the cells were harvested and transferred to glass fiber filters using a cell harvester (Brandel) and counted using β-counter (Lumitron). Proliferation was measured by the incorporation of [^3H] thymidine into DNA during the final 12 h of incubation. The results are expressed as the stimulation index (S.I.): the ratio of the mean radioactivity (cpm) of the antigen to the mean background (cpm) obtained in the absence of the antigen. Standard deviation was always <10% of the mean cpm.
Tolerance induced by mucosal exposure to plaque-associated molecules may be mediated by suppression of specific immune responses to antigenic portions (epitopes) of these plaque associated molecules. Lymphocyte proliferation in response to mucosal (nasal and oral) exposure to human β2GPI was measured in […]. 9 male, 5 week old LDL-RD mice were divided into 3 groups. In group A (n=3) oral tolerance was induced with 100 μg/mouse β2GPI suspended in 0.1 ml PBS, administered by gavage, as described above, every other day for 5 days. In group B (n=3) nasal tolerance was induced with 10 μg/mouse β2GPI suspended in 10 μl PBS, administered intranasally as described above, every other day for 5 days. The mice in group C (n=3) received oral administration of 200 μl PBS every other day for 5 days. Immune reactivity was stimulated in all mice by immunization with human β2GPI as described above in the Materials and Methods section, one day after the last feeding. Ten days after the immunization lymph nodes were collected for assay of proliferation (as expressed in the Stimulation Index SI). All mice were fed normal chow-diet containing 4.5% fat by weight (0.02% cholesterol) and water ad libitum.

[2] = system: LDL-RD mice; test: Aortic sinus lesion area after nasal tolerance induction, Western diet; type: in vivo; conditions: END, intranasal 10 μg/mouse every other day for 5 days, then Western diet, mean ± S.E
Procedure: Nasal Tolerance: Nasal tolerance was induced by intranasal administration of oxidized LDL, β2GPI, β2GPI-derived peptides or HSP65, in a total volume of 10 μl PBS. Intranasal administration was performed on mildly sedated mice (12-16 weeks old), each mouse receiving 3 doses of antigen per dose, in the indicated concentrations, every other day. Atherogenesis was induced by 5 weeks of a Western diet initiated on the day following the last intranasal administration, or assessed (in Apo E KO mice) after 8 weeks on a chow diet. Controls received equal amounts of BSA and/or PBS, as indicated, in an identical regimen. Plasma was obtained for assessment of cholesterol and triglyceride levels from all mice, and the mice were sacrificed for evaluation of atherosclerosis, as described hereinbelow, after 5 weeks Western diet, or (in Apo E KO mice) after 8 weeks on a chow diet.
Assessment of Atherosclerosis: Quantification of atherosclerotic fatty streak lesions was done by calculating the lesion size in the aortic sinus as previously described (16) and by calculating the lesion size in the aorta. Briefly, after perfusion with saline Tris EDTA, the heart and the aorta were removed from the animals and the peripheral fat cleaned carefully. The upper section of the heart was embedded in OCT medium (10.24% w/w polyvinyl alcohol; 4.26% w/w polyethylene glycol; 85.50% w/w nonreactive ingredients) and frozen. Every other section (10 μm thick) throughout the aortic sinus (400 μm) was taken for analysis. The distal portion of the aortic sinus was recognized by the three valve cusps that are the junctions of the aorta to the heart. Sections were evaluated for fatty streak lesions after processing and staining with oil-red O, according to Paigen et al (Atherosclerosis, 1987; 68:231-40). Lesion areas per section were scored on a grid (17) by an observer counting unidentified, numbered specimens. The aorta was dissected from the heart and surrounding adventitious tissue was removed. Fixation of the aorta and Sudan staining of the vessels were performed as previously described (21).
Mice were bled prior to feeding (Time 0) and at the conclusion of the experiment (End) for determination of lipid profile. Atherosclerosis was assessed in heart and aorta as described above, 8 weeks after the last feeding. Mice were weighed every 2 weeks during the experiment. All mice were fed water ad libitum and a normal chow-diet containing 4.5% fat by weight (0.02% cholesterol), up to the final antigen exposure, and then a “Western” diet until sacrifice.
Thus, nasal exposure to a low dose and an exceedingly low dose of recombinant human HSP 65 were compared for their effectiveness in suppressing atherogenesis in LDL-RD mice. 58 male 12-16 week old LDL-RD mice were divided into 4 groups.

[3] = system: lymph node cells; test: Lymph node cell proliferation (stimulation index) to oxLDL after oral administration; type: in vivo, mice; conditions: oral, 3 doses of 100 μg; LDL-RD mice immunized with OxLDL; OxLDL challenge; mean ± S.E.
Procedure: Proliferation was measured by the incorporation of [^3H] thymidine into DNA during the final 12 h of incubation. The results were computed as stimulation index: the ratio of the mean cpm of the antigen to the mean background cpm obtained in the absence of the antigen.
[…] Three days after the final administration of peptides, the mice were immunized with OxLDL in incomplete Freund's adjuvant, as described in the Examples above, and lymph node cells assessed for antigen (OxLDL) stimulation of proliferation 10 days later. Proliferation was assessed by incorporation of thymidine, expressed as the Stimulation Index, as described.

[4] = system: LDL-RD mice; test: Aortic sinus lesion area after intraperitoneal immunization with incomplete Freund's adjuvant; type: in vivo; conditions: End, intraperitoneal with incomplete Freund's adjuvant, head 100 μg, mean ± S.E
Procedure: Intraperitoneal immunization with human β2GPI-derived peptides: human β2GPI-derived peptides were dissolved in PBS and mixed with equal volumes of Freund's incomplete adjuvant. […] One week following the last immunization, the diet was switched from chow to atherogenic “Western” diet for five weeks, and then the mice were sacrificed.
Assessment of Atherosclerosis: Quantification of atherosclerotic fatty streak lesions was done by calculating the lesion size in the aortic sinus as previously described (16) and by calculating the lesion size in the aorta. Briefly, after perfusion with saline Tris EDTA, the heart and the aorta were removed from the animals and the peripheral fat cleaned carefully. The upper section of the heart was embedded in OCT medium (10.24% w/w polyvinyl alcohol; 4.26% w/w polyethylene glycol; 85.50% w/w nonreactive ingredients) and frozen. Every other section (10 μm thick) throughout the aortic sinus (400 μm) was taken for analysis. The distal portion of the aortic sinus was recognized by the three valve cusps that are the junctions of the aorta to the heart. […] Lesion areas per section were scored on a grid (17) by an observer counting unidentified, numbered specimens. The aorta was dissected from the heart and surrounding adventitious tissue was removed. Fixation of the aorta and Sudan staining of the vessels were performed as previously described (21). […]

B1: Human β2 GPI: human beta2-glycoprotein I (SEQ ID NO: 10) purified from serum (protein)
chain: MISPVLILFSSFLCHVAIAGRTCPKPDDLPFSTVVPLKTFYEPGEEITYSCKPGYVSRGGMRKFICPLTGLWPINTLKCTPRVCPFAGILENGAVRYTTFEYPNTISFSCNTGFYLNGADSAKCTEEGKWSPELPVCAPIICPPPSIPTFATLRVYKPSAGNNSLYRDTAVFECLPQHAMFGNDTITCTTHGNWTKLPECREVKCPFPSRPDNGFVNYPAKPTLYYKDKATFGCHDGYSLDGPEEIECTKLGNWSAMPSCKASCKLPVKKATVVYQGERVKIQEKFKNGMLHGDKVSFFCKNKEKKCSYTEDAQCIDGTIEVPKCFKEHSSLAFWKTDASDVKPC
[1]; nasal 10 μg/mouse every other day for 5 days
  S.I (Stimulation Index): 2.1 ± 0.5
[1]; oral 100 μg/mouse every other day for 5 days
  S.I (Stimulation Index): 4.4 ± 0.5
[2]
  Aortic sinus lesion (μm^2): 46250 ± 4486 μm^2
[3]
  Stimulation index: 38 ± 12
[4]
  Aortic sinus lesion (μm^2): 36782 ± 5962 μm^2
